For test [1], the system named is B16F10 cells. The test can be described thus: Tumor growth of B16F10 cells transiently transfected with murine HspBP1 or HspBP1 (1-136). The class given is in vivo, mice. The conditions noted are these: subcutaneous, monitored for 20 days. The procedure:
Working with the possibility that human HspBP1 protein is recognized by the mouse immune system and that this is the reason for the tumor growth reduction, we decided to repeat the experiments using murine HspBP1. The B16F10 cells were transiently transfected with plasmid containing the sequence encoding the murine HspBP1 or […] as a control, and these cells were injected subcutaneously in the mouse thigh. Tumor growth was monitored for 20 days by measuring the volume of the thigh using a digital caliper.
B16F10 cells (5×10^5) were transiently transfected with pcDNA4/TO plasmid alone or containing the sequence encoding HspBP1 and HspBP1 (1-136) protein and, after 24 h, were injected subcutaneously into mice. A)—Quantification of tumor growth inhibition by HspBP1 after 20 days of tumor growth (Mann-Whitney test, p<0.05). B)—Tumor-bearing mice were photographed after 20 days of tumor growth. C)—Western blot analysis showing in vitro HspBP1 and truncated HspBP1 (1-136) expression on transfected cells.

Test [2] deals with B16F10 cells. The test can be described thus: Tetracycline-induced human HspBP1 overexpression in B16F10 tumors in mice. The class given is in vivo. An excerpt:
As part of the experimental strategy, a gene construct was designed and implemented for the Hsp70 binder expression, said construct being particularly useful for gene therapy for the treatment of mammalian tumors. Said gene construct comprises: • a sequence encoding a Hsp70 binding polypeptide; • a promoter sequence operatively linked to said encoding sequence; • said promoter and coding sequences being present on a vector or functional plasmid for expression of said polypeptide in prokaryotic or eukaryotic cells. In this context, a system was developed in which HspBP1 expression was regulated by the presence of tetracycline. B16F10 cells were stably transfected with pcDNA6/TR plasmid, the transfected clones were selected using antibiotic and then the cells were transfected with a plasmid containing the sequence encoding human HspBP1, or empty vector as a control. The HspBP1 increased expression was verified by adding tetracycline to the culture medium. […]
The B16F10 cells were stably transfected with pcDNA6/TR and pcDNA4/TO plasmids with or without the human HspBP1 sequence. […] Quantification of tumor growth inhibition by HspBP1 (Mann-Whitney test, /d/p<0.05). Tumor volume (V) was calculated using V=d2×D×0.5, where d=smaller diameter and D=larger diameter.

For test [3], the system named is activated caspase 3. The test can be described thus: Ex vivo activated caspase 3 Western blot of treated tumors. The class given is in vivo, mice. To be noted: tumor removed 24 hours after treatment, OVA control. As to the method: We performed ex vivo tests to verify that HspBP1 treatment could activate caspase 3 in melanoma. 8×10^5 cells/animals were injected and after 3 days they were treated with HspBP1 FL, HspBP1 (1-136) or OVA. After 24 hours, the tumor was removed and analyzed for activated caspase 3 by Western blot (FIG. 5).
The 17 kDa band represents the marking of activated caspase 3.
Background: A western blot detects proteins with antibodies after separation by electrophoresis.

The target of test [4] is T1, Hsp70 on the surface of the cells (Mus musculus, UniProt Q61696).
T1 construct: endogenous in cells; host or cells: B16F10 murine melanoma cells
Kind of test: Binding to B16F10 cells analyzed by flow cytometry. More on the design: species or system murine. To be noted: B16F10 cells labeled 2 hours on ice. From the text: Studies have shown that Hsp70 and HspBP1 can be secreted by tumor cells (Evdonin et al., 2009) and it is well established that Hsp70 is present in human serum (Pockley et al., 1998). Our laboratory has shown that breast cancer patients had twice the HspBP1 level in their serum compared to tumor-free individuals. Furthermore, breast tumors contained HspBP1 (and Hsp70) levels that were 4 times higher than the normal adjacent tissue (Souza et al., 2009).
Fc receptors were blocked using […], then the cells were labeled for 2 hours on ice with HspBP1 (FL) or HspBP1 (1-136). Cells were acquired on FACS Canto II cytometer (BD bioscience), and the data were analyzed using the FlowJo software (TreeStar).
(In general: A flow cytometer gives signals particle by particle.)

Test [5] deals with B16F10 cells. Kind of test: Survival of transfected B16F10 cells after heat shock. The format is cell-based, murine. The conditions noted are these: overexpression in B16F10 cells, heat shock 42° C. for 1 h. The procedure:
When Hsp70 is silenced in B16F10 cells using siRNA and when we submit the cells to heat shock, there is a reduction in the number of viable cells in vitro (FIG. 3).
B—Western blot analysis of Hsp70 and actin expression in B16F10 cells, after silencing Hsp70 with siRNA. Cells were treated with control siRNA (lane 1) or Hsp70 siRNA (lane 2) and subsequently heat shocked at 42° C. for 2 hours, followed by a recovery of 37° C. for 4 h. C—Survival of B16F10 cells transiently transfected with pcDNA4/TO plasmid containing the murine HspBP1 sequence or pcDNA4/TO plasmid having murine HspBP1 (1-136) sequence; with or without heat shock at 42° C. for 1 h.

Test [6] has as its system B16F10 cells. The test can be described thus: Intratumoral injection of recombinant protein in melanoma-bearing mice. The format is in vivo. The conditions noted are these: 40 ug intratumorally on days 3 and 6, monitored for 16 days, BSA control. As to the method:
The recombinant form of the non-natural 1-136 peptide was produced. Then melanoma-bearing mice were treated with whole protein (FL) or only with said peptide. […] 3 and 6 days later, 40 ug HspBP1, BSA or truncated HspBP1 were intratumorally injected in 100 uL PBS. Tumor growth was monitored for 16 days. Tumor sizes were measured using a caliper. Tumor volume (V) (mm3) was calculated using V=d2×D×0.5, wherein d=smaller diameter and D=larger diameter.

In test [7] the test system is B16F10 cells. Kind of test: Sensitization of B16F10 cells to hydrogen peroxide-induced death (MTT, annexin/propidium iodide). The format is cell-based, murine. The conditions noted are these: HspBP1 for 2 h, then hydrogen peroxide; MTT after 24 h or annexin/propidium iodide after 12 h. As to the method:
Since Hsp70 protects against death induced by oxidative stress—such as, for example, that induced in the treatment with hydrogen peroxide, we hypothesized that HspBP1 will sensitize tumors to death by oxidative stress, thereby enabling a tumor cell sensitization method to chemotherapeutic agents. HspBP1 was added at different concentrations with B16F10 cells cultured for 2h and then hydrogen peroxide was added. After 24 h and 12 h viability was assessed using MTT or by annexin and propidium iodide labeling to assess apoptotic cells. […] Viability was assessed using MTT after 24 hours (A) or by annexin and propidium iodide labeling after 12 h (B).

Test [8] deals with B16F10 cells. The test can be described thus: Chemo-sensitization of B16F10 cells to cisplatin (MTT). The format is cell-based, murine. The conditions noted are these: HspBP1 for 2 h, then cisplatin 160 ug/ml, 14 h. As to the method:
It was also assessed whether HspBP1 may enhance the effect of chemotherapeutic agents already used in clinical practice. The B16F10 cells were plated at a concentration of 4×10^3 cells per well in a 96 well plate in 200 ul 10% DMEM medium. After 24 h, HspBP1 was added at different concentrations in AIM-V medium, and cells were incubated for 2 h; then cisplatin was added at a concentration of 160 ug/ml. After 14 h cell viability was assessed using MTT.
The B16F10 cells were plated at a concentration of 4×10^3 cells per well in a 96 well plate in 200 ul 10% DMEM medium. After 24 h, HspBP1 was added at different concentrations in AIM-V medium, and cells were incubated for 2 h; then cisplatin was added at a concentration of 160 ug/ml. After 14 h, cell viability was assessed using MTT.

Test [9] concerns B16F10 cells. Kind of test: Growth of HspBP1-overexpressing B16F10 tumors in WT and RAG-/- mice. To be noted: for tumor size vs vector control: 25 days of tumor growth. The class given is in vivo. As to the method:
One possibility is that the host immune system plays a role in in vivo tumor growth inhibition mediated by HspBP1. A comparison between wild WT mice (C57BL6/c) and immunodeficient mice (RAG−/−) was used to further explore the involvement of the immune system in tumor regression mediated by HspBP1 overexpression in B16F10 cells (FIG. 10).
Tumor volume (mm3) was measured after 25 days of tumor growth (Mann-Whitney test, p <0.05).

The subject of test [10] is draining lymph nodes. Kind of test: Draining lymph node analysis of tumors over-expressing HspBP1 (flow cytometry). The conditions noted are these: 25 days of tumor growth. The format is in vivo, mice. As to the method:
Furthermore, activation of dendritic cells and the number of CD4 and CD8 T cells in draining lymph nodes of tumor-bearing mice transiently over-expressing HspBP1 was evaluated. […] A—Number of CD4+ or CD8+ T cells in draining lymph nodes. B—Number of CD11c+CD86+MHCII+ cells. C—Dot plot graph showing the frequency of CD11c+, CD86 +MHC-II+ dendritic cells.

For test [11], the system named is GL, glioma cell line. Kind of test: Apoptosis in GL glioma cell line (Annexin V/iodide flow cytometry). The class given is cell-based. The conditions noted are these: 10 or 20 ug for 24 hours, albumin control. As to the method: In vitro assays were performed to verify whether HspBP1 could induce cell death in GL, glioma cell line. 5×10^5 cells were seeded per well in a 24 well plate. Then, cells were incubated with 10 or 20 ug HspBP1 or albumin for 24 hours in DMEM containing 1% fetal bovine serum. After 24 hours, the samples were analyzed by flow cytometry using the Annexin V/iodide kit (BD).

Test [12] has as its system tumor. Kind of test: Intravenous injections in tumor bearing mice. The class given is in vivo. The conditions noted are these: circulating levels increased through intravenous injections. An excerpt: The invention therefore additionally provides a new in vivo experimental model for the development of new anti-tumor agents.
The test system of test [13] is B16F10 cells. The test can be described thus: Single HspBP1 treatment of B16F10 cells in culture. To be noted: no added stressor. The format is cell-based, murine.
Test [14] deals with Hsp70 ATPase activity (Homo sapiens, UniProt P0DMV8). The conditions noted are these: according to Raynes et al. (2003); cited from earlier work.
Sequence of Hsp70 ATPase activity (P0DMV8 whole entry): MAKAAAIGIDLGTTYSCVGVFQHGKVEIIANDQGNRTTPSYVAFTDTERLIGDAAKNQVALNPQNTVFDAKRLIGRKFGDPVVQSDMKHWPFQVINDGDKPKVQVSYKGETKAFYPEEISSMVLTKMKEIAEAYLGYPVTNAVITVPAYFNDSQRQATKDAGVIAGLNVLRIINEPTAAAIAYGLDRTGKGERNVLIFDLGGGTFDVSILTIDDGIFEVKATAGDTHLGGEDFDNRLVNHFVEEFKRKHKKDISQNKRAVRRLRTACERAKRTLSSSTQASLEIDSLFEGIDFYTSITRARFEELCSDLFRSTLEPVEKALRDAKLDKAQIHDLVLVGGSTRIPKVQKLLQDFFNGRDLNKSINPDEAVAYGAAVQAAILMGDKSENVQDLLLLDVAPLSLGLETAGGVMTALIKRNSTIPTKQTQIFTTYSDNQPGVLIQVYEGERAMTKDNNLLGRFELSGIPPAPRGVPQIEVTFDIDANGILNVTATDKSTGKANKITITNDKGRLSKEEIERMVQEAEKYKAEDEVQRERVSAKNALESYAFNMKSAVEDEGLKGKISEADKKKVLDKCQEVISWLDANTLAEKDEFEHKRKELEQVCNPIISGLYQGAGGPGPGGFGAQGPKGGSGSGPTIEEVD

T1 sequence (Q61696 whole entry): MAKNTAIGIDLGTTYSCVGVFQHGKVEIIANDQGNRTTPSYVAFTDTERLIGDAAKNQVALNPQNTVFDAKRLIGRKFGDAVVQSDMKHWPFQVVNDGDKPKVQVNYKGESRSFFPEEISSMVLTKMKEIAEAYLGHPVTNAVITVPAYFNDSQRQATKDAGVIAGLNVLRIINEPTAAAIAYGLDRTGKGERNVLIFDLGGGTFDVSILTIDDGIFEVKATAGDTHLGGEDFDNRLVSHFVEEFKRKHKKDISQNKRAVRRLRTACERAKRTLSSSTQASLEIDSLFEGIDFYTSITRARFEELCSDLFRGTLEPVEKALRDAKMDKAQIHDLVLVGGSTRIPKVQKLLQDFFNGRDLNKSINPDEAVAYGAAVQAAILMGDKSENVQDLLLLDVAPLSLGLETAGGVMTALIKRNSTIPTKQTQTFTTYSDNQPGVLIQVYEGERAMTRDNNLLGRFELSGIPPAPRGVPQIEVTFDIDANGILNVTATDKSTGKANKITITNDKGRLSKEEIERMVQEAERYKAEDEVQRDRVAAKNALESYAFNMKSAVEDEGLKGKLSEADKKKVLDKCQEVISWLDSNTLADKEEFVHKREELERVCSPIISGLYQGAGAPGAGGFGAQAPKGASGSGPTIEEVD

In the case of “murine HspBP1: murine HspBP1 expressed in B16F10 cells from pcDNA4/TO plasmid; 94% identical to human form”, the tumor growth entry in test [1] was “inhibits tumor growth”.

B1: human HspBP1: human HspBP1 expressed in B16F10 cells from a tetracycline-regulated plasmid (protein, UniProt Q9NZL4 1-359, looked up)
Hsp70-binding protein 1: MSDEGSRGSRLPLALPPASQGCSSGGGGGGSSAGGSGNSRPPRNLQGLLQMAITAGSEEPDPPPEPMSEERRQWLQEAMSAAFRGQREEVEQMKSCLRVLSQPMPPTAGEAEQAADQQEREGALELLADLCENMDNAADFCQLSGMHLLVGRYLEAGAAGLRWRAAQLIGTCSQNVAAIQEQVLGLGALRKLLRLLDRDACDTVRVKALFAISCLVREQEAGLLQFLRLDGFSVLMRAMQQQVQKLKVKSAFLLQNLLVGHPEHKGTLCSMGMVQQLVALVRTEHSPFHEHVLGALCSLVTDFPQGVRECREPELGLEELLRHRCQLLQQHEEYQEELEFCEKLLQTCFSSPADDSMDR
As for B1, the average tumor volume in test [2] (B16F10 stably transfected, injected subcutaneously into thigh of mice, tetracycline in drinking water, control tumors 46.9 mm^3) is 2.07 mm^3. The tumor growth entry in test [2] (induced human HspBP1 overexpression vs mice without tetracycline) is “clearly reduced”.

B2: truncated HspBP1: non-natural peptide corresponding to amino acids 1-136 of HspBP1 (protein)
chain: MADKGSGGSRLPLALPPASQGCSSGGSGSSAGGSGNPRPPRNLQGLLQMAITAGSQEPDPPPEPMSEERRQWLQEAMSAAFRGQREEVEQMKNCLRVLSQATPAMAGEAELATDQQEREGALELLADLCENMDNAA
As to B2, in test [1], the tumor growth entry is listed as “also inhibits tumor growth”. Also, the “apoptosis in vivo (activated caspase 3)” value in test [3] is recorded as “inhibits tumor growth by inducing apoptosis in vivo”. Moreover, in test [4], the “binding to the extracellular surface of tumor cells” value was “can bind to the extracellular surface of tumor cells”. Further, the “cell survival after heat shock” value in test [5] was “no changes occur in vitro”.

B3: HspBP1: Hsp70 binding co-chaperone protein, SEQ ID No: 1; species of the protein not always stated (protein, listed as Mus musculus)
chain: B2 chain
For the molecule B3, the results for the tumor growth result in test [6] and in test [12] were “Reduces Tumor Growth” and “tumor growth was reduced”, respectively. The “binding to the extracellular surface of tumor cells” value in test [4] is recorded as “can bind to the extracellular surface of tumor cells”. In addition, the “cell survival after heat shock” value in test [5] is recorded as “no changes occur in vitro”. Moreover, the “death induced by oxidative stress” value in test [7] was “enhances death induced by oxidative stress”. Further, the “effect on cisplatin-induced death (cell viability, MTT)” value in test [8] is “enhances the effect of cisplatin death”. Moreover, the “tumor size vs vector control” value in test [9] (RAG -/- mice) is reported as “tendency to be smaller than tumors transfected with vector alone, although the difference was not significant”; in test [9] (WT mice (C57BL6/c)) it was “significantly smaller than tumors transfected only with the vector as a control”. For the same molecule, in test [9] (tumors expressing HspBP1), the “tumor size, WT vs RAG -/- mice” value was “significantly smaller in WT than in RAG −/− mice”. Further, the “T cell frequency in the draining lymph nodes” value in [10] (CD4 and CD8 T cells) was “no difference in T cell frequency”. Also, in [10] (CD11c+CD86+MHCII+ cells), the “activation of dendritic cells in the lymph node” value is reported as “trend in the activation of dendritic cells”. The “frequency of apoptotic cells” value in test [11] is listed as “increase in the frequency of apoptotic cells”. For the same molecule, the “anti-tumor effect in culture” value in test [13] is listed as “lack of an anti-tumor effect”. The “HspBP1/Hsp70 molar ratio resulting in 50% inhibition of Hsp70 ATPase activity” value in test [14] was 4.0.

The values are drawn from patent US10508139B2, “Compound, use, anti-tumor pharmaceutical composition, gene construct for polypeptide expression, process for the production, process for the evaluation of tumor cells, method of sensitization of tumor cells to chemotherapeutic” (União Brasileira de Educaçâo e Assistência, mantendedora da …, priority 2012, dated 2019).
